These are literature values, as cited in patent US12419862B2, “Use of a cathepsin s inhibitor against the formation of anti-drug antibodies” (Hoffmann-La Roche Inc., priority 2018, dated 2025).

A value given as a limit tells only on which side of the number the result lay.

The conditions of the data set: current standard of care in IBD; cited from earlier work.

Regarding “infliximab: anti-TNFalpha antibody, known to be highly immunogenic”, the reported immunogenicity rates result is recorded as “up to 51%”.
On to adalimumab, for which the reported immunogenicity rates was no more than 26%.
